Assay results reported in the nanobody polyreactivity screen of Harvey et al. (2022).

Assay: yeast display, Sf9 membrane polyspecificity reagent, FACS + sequencing; frameworks hold sequencing errors
How it was run: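 After 36–48 hours of galactose induction, yeast (Saccharomyces cerevisiae BJ5465) displaying a synthetic nanobody library were stained at 4 °C for 1 hour with 10% biotinylated, detergent-solubilized Sf9 membrane reagent. Streptavidin microbeads enriched the stained cells before FACS sorting into low and high (top ~1%) gates on anti-HA and streptavidin fluorescence. Each clone's polyreactivity label reflects its gate of origin.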

Sequence	polyreactivity (PSR sort gate)
QVQLVESGGGLVQAGGSLRLSCAASGSIFVVYTMGWYRQAPGKERELVAAITQNGGSSTYYADSVKGRFTISRDNAKNTVYLQMNSLKPEDTAVYYCNKDILSPVVRIFKYGYDMDYWGQGTQVTVSS	low polyreactivity
QVQLVESGGGLVQAGGSLRLSCAASGSIFVWYAMGRYRQAPGQERELVARITSGGRTNYADSVKGRFTISRDNAKNTVYLQMISLKPEDTAVYYCAAGRVSWSPDYYWGQGTQGTVSS	high polyreactivity
QVQLVESGGGLVQAGGSLRLSCAASGSIFVYNAMGWYRQAPGKEMELVAAISTSGGRTYYADSVKGRFTISRDNAKNTVYLQMNSLKTEDTAVYYCNALGYWRRVVDGFDYWGQGTQVTVSS	high polyreactivity
QVQLVESGGGLVQAGGSLRLSCAASGSIFVYNAMGWYRQAPGKERELVAAISSSGGSTYYADSVKGRFTISRDNAKNTVYLQMNSLKPEDTAVYYCAAEAVRKVPSYYSYAYYYWGQGTQVTVSS	high polyreactivity
QVQLVESGGGLVQAGGSLRLSCAASGSIFVYNAMGWYRQAPGKERELVAAITNGGSTNYADSVKGRFTISRDNAKNTVYLQMNSLNPEDTAVYYCAARRYTSAVWWRPRHYYWGQGTQVTVSS	high polyreactivity
QVQLVESGGGLVQAGGSLRLSCAASGSIFVYNAMGWYRQAPGKERELVAGITFIGGSTYYADSVKGRFTISRDNPKNTVYLQMNSLKPEDTAVYYCNADVAPGIFYGYDSWGQGTQVTVSS	low polyreactivity
QVQLVESGGGLVQAGGSLRLSCAASGSIFVYNAMGWYRQAPGKEWELVAAISFSGGDTYYADSVKGRFTISRDNAKNTVYLQMNSLKPEDTAVYYCNVDNSEYEGDYWGQGTQVTVSS	low polyreactivity
QVQLVESGGGLVQAGGSLRLSCAASGSIFVYNTMAWYRPAPVKERELVAAISSSGGSTYYADSVKGRFTISRDNAKNTVYLQMNSLKPEDTAVYYCAKGPLYSLFFQLDAPYRYGYWGQGTQVTVSS	low polyreactivity
QVQLVESGGGLVQAGGSLRLSCAASGSIFVYYAMGWYRQAPGKERELVAAISQRGGRTYYADSVKGRFTISRDNAKNTVYLQMNSLKPEDTAVYYCAARAWTRSVPYGFYYWGQGTQVTVSS	high polyreactivity
QVQLVESGGGLVQAGGSLRLSCAASGSIFVYYAMGWYRQAPGKERELVAAISSRGGRTYYADSVKGRFTISRDNAKNTVYLQMNSLKPEDTAVYYCAAVSSRLWLYDYWGQGTQVTVSS	high polyreactivity
QVQLVESGGGLVQAGGSLRLSCAASGSIFVYYAMGWYRQAPGKERELVAAISSTGGRTYYADSVKGRFTISRDNAKNTVYLQMNSLNPEDTAVYYCAKDYGSYFIFLSYPRSRYDYWGQGTQVTVSS	low polyreactivity
QVQLVESGGGLVQAGGSLRLSCAASGSIFVYYAMGWYRQAPGKERELVAAITWSSGRTYYADSVKGRFTISRDNAKNTVYLQMNSLKPEDTAVYYWNVLTRYYLGYDYWGQGTQVTVSS	high polyreactivity
QVQLVESGGGLVQAGGSLRLSCAASGSIFVYYGMGWYRQAPGKERELFAAISSGGSTHYADSVKGRFTISRDNAKNTVYLQMNSLKPEDTAVYYCAADRFFWLRSYPRYYYWGQGTQVTVSS	low polyreactivity
QVQLVESGGGLVQAGGSLRLSCAASGSIFVYYTMGWYRQAPGKERELVASITSGGNTNYADSVKGRFTISRDNAKNTVYLQMNSLKPEDTAVYYCAADYQTVTQADWGTVYDYDYWGQGTQVTVSS	low polyreactivity
QVQLVESGGGLVQAGGSLRLSCAASGSIFWANAKGWYRQAPGKERELVATITSGGRTYYADSVKGRFTISRDNAKNTVYLQMNSLKPEDTAVYYCARVPPQYRWGRRLVYVHVDYWGQGTQVTVSS	low polyreactivity
QVQLVESGGGLVQAGGSLRLSCAASGSIFWANAMGWYRQAPGKERELVASISSGGSTNYADSVKGRFTISRDNAKNTVYLQMNSLKPEDTAVYYCAADYSHSYIGYDYWGQGTQVTVSS	low polyreactivity
QVQLVESGGGLVQAGGSLRLSCAASGSIFWEYAMGWYRQAPGKDREFVATISARGGRTYYADSVKGRFTSSRDNAKNTVYLQMNSLKPDATAVYYCANVGVFHLRDNYRFDYWGQGTQVTVSS	low polyreactivity
QVQLVESGGGLVQAGGSLRLSCAASGSIFWFKAMGWYRQAPGKERELVATIRYSGGSTYYADSVKGRFTISRDNEKNTVYLQRNSMKPEDTAVYYCAADAVGDGHNDYWGLGTQVTVSS	high polyreactivity
QVQLVESGGGLVQAGGSLRLSCAASGSIFWIYAMVWSRQAPGKERELVAVISDRGARTYYADSVKGRFTLSRDNAKNTVYLQMNSLKPEDTAVYYCNADTRQARLQKMDSWGQGTQVTVSS	high polyreactivity
QVQLVESGGGLVQAGGSLRLSCAASGSIFWNYTMGWYRPAPGKERELVAAITWSGSSTYYADSVKGRFTISRDNAKNTVYLQMNSLKPEDTAVYYCAKDGSGTYEFDYWGQGTQVTVSS	low polyreactivity
QVQLVESGGGLVQAGGSLRLSCAASGSIFWRNAMGWYRQAPGKERELVAAITKTGASTYYADSVKGRFTISRDNAKNTVYLQMNSLKPEDTAVYYCAKDTRGRYAGSYRYDYCGQGTQVTVSS	low polyreactivity
QVQLVESGGGLVQAGGSLRLSCAASGSIFWRNAMGWYRQAPGKERELVAAITSGGSTYYADSVKGRFTISRDNAKNTVYLQMNSLNPEDTAVYYCAAGYSYRYGYWGQGTQVTVSS	low polyreactivity

Sequence	polyreactivity (PSR sort gate)
QVQLVESGGGLVQAGGSLRLSCAASGSIFWSNAMGWYRQSPGKEREFVASISSSGSTNYADSVKGRFTISRDNAKNTVYLQMNSLKPEDTAVYYCNADGLYSYWYFWSSAYDYWGQGTQVTVSS	low polyreactivity
QVQLVESGGGLVQAGGSLRLSCAASGSIFWSYAMGWYRQAPGKEREFVAAITVSGGSTYYADSVKGRFTISRDNAKNTVYLQMNSLKPEDTAVFYCAARQLTAGGTDLDYWGQGTKVTVSS	low polyreactivity
QVQLVESGGGLVQAGGSLRLSCAASGSIFWSYAMGWYRQAPGKERELVAAITWSGGNTYADSVKGRFTISRDNAKNTVYLQMNSLTPEDTAVYYCAAYPAHGTKWYVYPSHDDYWGQGTQVNVSS	low polyreactivity
QVQLVESGGGLVQAGGSLRLSCAASGSIFWSYAMGWYRQAPGKERELVAAITYSGTSTYYADSVKGRFTISRDNAKNTVYLQMNSLKPEDTAVSYCAASPYSRSRYDYWGQGTQVTVSS	low polyreactivity
QVQLVESGGGLVQAGGSLRLSCAASGSIFWSYAMGWYRQAPGKERELVAVINWSGGSTYYADSVKGRFTISRDNAKNTVYLQMTSLKPEDTAVYYCNKDLGPTKRPFTFDYWGQGTQVTVSS	low polyreactivity
QVQLVESGGGLVQAGGSLRLSCAASGSIFWTNVMGWYRQAPGKERELVAAISYSDGSTYYADSVKGRFTISRDNAKNTVYLQMNSLKPEDTAVYYCAADQYYYWGGYDYWGQGTQVTVSS	low polyreactivity
QVQLVESGGGLVQAGGSLRLSCAASGSIFWYNAKGWYRQAPGKERELVAAINWGGGSTYYADSVKGRFTISRDNAKNTVYLEMNSLTPEDTAVYYCNADQQVDHATVSQRDGYDYWGQGTQVTVSS	low polyreactivity
QVQLVESGGGLVQAGGSLRLSCAASGSIFWYYAMGWYRQAPGKERELVAAIRRGGSTTYADSVKGRFTISRDNAKNTVYLQMNSLKPEDTAVYYCAAEPYYWYRGDYWGQGTQVTVSS	high polyreactivity
QVQLVESGGGLVQAGGSLRLSCAASGSIFWYYAMGWYRQAPGKERELVAAISSGGSTYYADSVKGRFTISRDNAKNTVYLQMNSLKPEDTAVYYCAAGAFGQILNYWGQGTQVTVSS	high polyreactivity
QVQLVESGGGLVQAGGSLRLSCAASGSIFWYYAMGWYRQAPGKERELVADITIRGGRTYYADSVKGRFTISRDNAKNTVYLQMNSLKPEDTAVYYCAADWEYWGFGLYDYWGQGTQVTVSS	low polyreactivity
QVQLVESGGGLVQAGGSLRLSCAASGSIFWYYAMGWYRQAPGKERELVASISSSGGSTYYADSVKGRFTISRDNAKNTVYLQMNSLKPEDTAVYYCAVRSPYRLSRWRVGYWGQGTQVTVSS	high polyreactivity
QVQLVESGGGLVQAGGSLRLSCAASGSIFWYYVMGWYRQAPGKERELVAAITFSGAGTYYADSVKGRFTISRDNAKNTVYLQMNSLKPEDTAVYYCAARWLGHFYPFFLQGLSGFDYWGQGTQVTVSS	low polyreactivity
QVQLVESGGGLVQAGGSLRLSCAASGSIFYANAMGWYRQAPAKERELVAAIRSGGSTNYADSVKGRFTISRDNAKKTVYLQMNSLKPEDTAVYYCAAVWRYWSGQKVGYWGQGTQVTVSS	high polyreactivity
QVQLVESGGGLVQAGGSLRLSCAASGSIFYANAMGWYRQAPGKERELVAAISWSGGRTYYADSVKGRFTISRDNAKNTVYLQMNSLKPEDTAVYYCNVLPLYLEYDYWGQGTQVTVSS	high polyreactivity
QVQLVESGGGLVQAGGSLRLSCAASGSIFYAYAMGWYRQAPGKEREFVAVISYSGGSTYYADSVKGRFTISRDNAKNTVYLQMNSLKPEDTAVYYCAARYRRPYSYYYWGQGTQVTVSS	high polyreactivity
QVQLVESGGGLVQAGGSLRLSCAASGSIFYAYAMGWYRQAPGKERELVAVISRGGITNYADSVKGRFTISRDNAKNTVYLQMNSMKPEDTAVYYCAAATSAWGYLRRYGYWGQGTQVTVSS	low polyreactivity
QVQLVESGGGLVQAGGSLRLSCAASGSIFYAYAMGWYRQAPGKESELVAVISRGGITNYADSVKGRFTISRDNAKNTVYLQMNSLKPEDTAVYYCAAATSAWGYLRRYGYWGQGTQVTVSS	low polyreactivity
QVQLVESGGGLVQAGGSLRLSCAASGSIFYDKAMGWYRQAPGKERELVAVISNSGRTYYADSVKGRFTISRDNAKNTVYLQMNSLKPEDTAVYYCWGQVTQVTVSS	low polyreactivity
QVQLVESGGGLVQAGGSLRLSCAASGSIFYDYMGWYRQAPGKERELVAVISYSGSSTYYADSVKGRFTISRDNAKNTVYLQMNSLKPEDTAVYYCAARNVNGWDYDYWGQGTQVTVSS	low polyreactivity
QVQLVESGGGLVQAGGSLRLSCAASGSIFYDYVMGWYRQAPGKERELVAAISVSGGRTYYADSVKGRFTISRDNAKNTVYLQMNSLKPEDTAVDYCAAKYPAGGRNYDYWGQGTQVTVSS	high polyreactivity
QVQLVESGGGLVQAGGSLRLSCAASGSIFYENTMGWYRQAPGKEREFVAAISRSGGSTYYADSEKGRFTISRDNAKNTVYLQMNSLKPEDTAVYYCAAKSRRYHHEYYYWGQGTQVTVSS	high polyreactivity
